We go through 9 molecules from patent publication US20260216242A1 (ALMAC DISCOVERY, published 2026).

To fix the notation:
T1: Human ALPP (leucine zipper) (human)
T1 construct: Whole entry: ALPP fused with a cysteine stabilised leucine zipper and His tag; also called hALPP
T1 chain: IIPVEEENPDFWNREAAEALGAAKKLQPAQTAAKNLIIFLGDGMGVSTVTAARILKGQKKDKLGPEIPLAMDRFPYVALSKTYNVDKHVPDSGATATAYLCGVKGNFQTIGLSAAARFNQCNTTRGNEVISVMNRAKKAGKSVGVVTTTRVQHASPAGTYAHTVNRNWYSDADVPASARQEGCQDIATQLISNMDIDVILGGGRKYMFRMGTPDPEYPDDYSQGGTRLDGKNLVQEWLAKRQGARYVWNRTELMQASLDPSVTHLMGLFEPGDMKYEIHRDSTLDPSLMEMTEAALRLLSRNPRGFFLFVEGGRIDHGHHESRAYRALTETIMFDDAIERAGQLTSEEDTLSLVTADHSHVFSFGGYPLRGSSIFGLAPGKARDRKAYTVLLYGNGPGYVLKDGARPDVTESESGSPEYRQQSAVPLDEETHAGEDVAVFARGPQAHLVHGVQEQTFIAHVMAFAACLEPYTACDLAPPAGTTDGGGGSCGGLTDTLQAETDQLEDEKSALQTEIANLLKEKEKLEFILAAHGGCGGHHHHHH

T2: Human ALPL (leucine zipper) (human)
T2 construct: Whole entry: fused with a cysteine stabilised leucine zipper and His tag; also called hALPL
T2 chain: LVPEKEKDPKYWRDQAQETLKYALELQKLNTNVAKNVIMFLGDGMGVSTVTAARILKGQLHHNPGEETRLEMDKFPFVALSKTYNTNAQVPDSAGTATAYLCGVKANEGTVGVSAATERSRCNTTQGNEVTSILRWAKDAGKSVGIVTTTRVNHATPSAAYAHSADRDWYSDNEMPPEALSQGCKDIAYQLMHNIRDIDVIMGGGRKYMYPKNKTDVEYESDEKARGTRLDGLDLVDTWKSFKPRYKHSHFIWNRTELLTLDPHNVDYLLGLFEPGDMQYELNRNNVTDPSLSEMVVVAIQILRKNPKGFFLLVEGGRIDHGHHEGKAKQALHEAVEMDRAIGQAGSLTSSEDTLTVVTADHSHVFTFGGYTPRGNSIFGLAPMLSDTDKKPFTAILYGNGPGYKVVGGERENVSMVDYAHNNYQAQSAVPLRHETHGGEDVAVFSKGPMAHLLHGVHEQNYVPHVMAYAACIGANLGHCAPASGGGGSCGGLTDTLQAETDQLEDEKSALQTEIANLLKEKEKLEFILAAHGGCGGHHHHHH

T3: Human ALPPL2 (leucine zipper) (human)
T3 construct: Whole entry: fused with a cysteine stabilised leucine zipper and His tag; also called hALPPL2
T3 chain: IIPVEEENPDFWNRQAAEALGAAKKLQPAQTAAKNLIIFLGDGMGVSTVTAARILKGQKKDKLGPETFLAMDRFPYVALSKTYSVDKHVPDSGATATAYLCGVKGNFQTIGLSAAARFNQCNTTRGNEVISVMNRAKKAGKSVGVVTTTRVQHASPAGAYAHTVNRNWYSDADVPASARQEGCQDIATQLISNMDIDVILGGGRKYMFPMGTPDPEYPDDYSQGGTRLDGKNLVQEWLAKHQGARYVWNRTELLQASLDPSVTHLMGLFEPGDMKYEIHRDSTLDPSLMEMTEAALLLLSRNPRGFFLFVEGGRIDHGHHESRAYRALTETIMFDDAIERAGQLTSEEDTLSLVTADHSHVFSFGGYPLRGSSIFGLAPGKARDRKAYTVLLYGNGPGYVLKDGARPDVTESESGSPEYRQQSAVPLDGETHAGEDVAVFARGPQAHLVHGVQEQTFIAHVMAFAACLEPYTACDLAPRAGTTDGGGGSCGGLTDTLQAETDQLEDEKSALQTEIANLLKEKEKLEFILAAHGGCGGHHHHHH

B1: F08 His (VHH, not shown: small tags and cut ends)
VHH: QVQLVESGGGSVQAGGSLRLSCAASGPSLSNYAMGWFRQAPGKEREFVAGISWGGGRTSYTDSVKGRFTISRDNAKNTVYLQMNNLKPEDTGVYYCAGRYGRGRNVEYEYDYWGQGTQVTVSS
notes: also called #269
B2: E06 His (VHH, not shown: small tags and cut ends)
VHH: QVHLVESGGGLVQAGGSLRLSCAASRRSFSEYAMGWFRQAPGKEREFVAAIGWSGVIEYADSVKGRFTISRDNAKDTVYLQMNSLKPEDTAVYYCAAGLGIRVVSQTPAYWGQGTQVTVSS
B3: C07 His (VHH, not shown: small tags and cut ends)
VHH: QVQLVESGGGLVQAGESLRLACAASGTIFSGNAVGWYRQAPEKQREWVSSITDYGDTDYAEAVKGRFTISRDNAKNTVYLQMNSLKPEDTAVYYCYVYQRGESEEYWGQGTQVTVSS
notes: also called #258
B4: A05 His (VHH, not shown: small tags and cut ends)
VHH: QVQLVESGGGLVQAGASLTLSCAASGFTFNTRSIVWFRQAPGKEREAVSCISKVAGSTYYGDSVQGRFSSSTDNAKNTVSLQMNSLKPEDTAVYTCAASFAPNCYGWSVAANMEYWGEGTMVTVSS
notes: also called #249
B5: D10 His (VHH, not shown: small tags and cut ends)
VHH: QVQLVESGGGLVQPGGSLRLSCAASGSIFSVNTMGWYRQAPGKQRDLVAVATSGGTIHYADSVKGRFTISRDNAKNTVYLQMNSLKPEDTAVYYCNLVVPYGMIAGDHDYWGQGTKVTVSS
B6: D04 His (VHH, not shown: small tags and cut ends)
VHH: QVQLVESGGGLVQPGGSLRLSCAASESTFSINVMGWYRQAPGKQRELVATITSGDITNYADSVKGRFTISRDNAENTVYLRTNSLKPEDTAVYYCNARGEYHSGNEYDYWGQGTQVTVSS
B7: E10 His (VHH, not shown: small tags and cut ends)
VHH: QVQLVESGGGLVQAGGSLRLSCAVSGRALSDYNIGWFRQAPGKEREFVARKTWDGSSTRYDDSVKGRFTVSIEDAKNTAYLQMSSLKTEDTAVYYCAAGRYSRARGWEYDYWGQGTQVTVSS
notes: also called #265
B8: F05 His (VHH, not shown: small tags and cut ends)
VHH: B7 VHH with V24A, L29F, S30G, K51R, E73D, D74N, S84N, A104V
B9: A06 His (VHH, not shown: small tags and cut ends)
VHH: QVHLVESGGGLVQAGGSLRLSCAASGRTFLSMGWFRQAPGKEREFVAAISWTGGSTGYADSVKGRFTISRESDKETMYLQMNSLKPEDTAVYYCAARGDVYYGGDDATRYKYWGQGTQVTVSS
notes: also called #250

Positions count from the first letter of the chain named. Where only a bound is given, the exact number is not on record here.

In the first test the target is T1, Human ALPP (leucine zipper). The experiment in a line: BLI, antigen immobilised. How it is done: (§1) Binding kinetics were determined using the Biolayer Interferometry (BLI) Octet K2 system (Sartorius). […] All assays were conducted in PBS with a plate temperature of 25° C. Ka (M⁻¹s⁻¹), Kd (s⁻¹) and KD (nM) values were determined using Octet Data Analysis High Throughput software (ForteBio) for Biolayer Interferometry.
In turn, B1 had an equilibrium dissociation constant (Kd) of less than 0.01 nM, an off-rate (koff) of less than 1e-07 s⁻¹ and a kon of 252000 M⁻¹ s⁻¹.
The like results for B2 were, in that order, less than 0.01 nM, less than 1e-07 s⁻¹ and 106000 M⁻¹ s⁻¹.
Molecule B3 returned a Kd of 0.22 nM, an off-rate (koff) of 2.8e-05 s⁻¹ and a kon of 129000 M⁻¹ s⁻¹.
Regarding B4, the Kd is less than 0.01 nM, the koff was less than 1e-07 s⁻¹ and the kon came out at 260000 M⁻¹ s⁻¹.
The molecule B5 registered a Kd of 0.2 nM, a dissociation rate constant (koff) of 1.3e-05 s⁻¹ and an on-rate constant (kon) of 67300 M⁻¹ s⁻¹.
For B6, the Kd is less than 0.01 nM, the off-rate constant (koff) is less than 1e-07 s⁻¹ and the on-rate constant (kon) is 85100 M⁻¹ s⁻¹.
Turning to B7, the Kd is less than 0.01 nM, the koff is less than 1e-07 s⁻¹ and the on-rate constant (kon) was found to be 54200 M⁻¹ s⁻¹.
The like results for B8 were, in that order, less than 0.01 nM, less than 1e-07 s⁻¹ and 13900 M⁻¹ s⁻¹.
The like results for B9 were, in that order, 1.32 nM, 0.000154 s⁻¹ and 117000 M⁻¹ s⁻¹.

The target in the next test is T2, Human ALPL (leucine zipper). Description: BLI, antigen immobilised. How it is done:
as §1
For the molecule B1, the binding result is given as “no binding”.
Regarding B2, the binding result is recorded as “no binding”.
Still for that read-out and setting: to B3 belongs “no binding”; to B4, “no binding”.
B5: the binding result is “no binding”.
In the case of B6, the binding result was “no binding”.
In the case of B7, the binding result is listed as “no binding”.
On the same count and under the same terms, to B8 belongs “no binding”.
On to B9, for which the binding result is given as “no binding”.

A further test addresses T3, Human ALPPL2 (leucine zipper). The experiment in a line: BLI, antigen immobilised. How it is done:
as §1
Molecule B1 came in with a dissociation constant Kd of less than 0.01 nM, a koff of less than 1e-07 s⁻¹ and an on-rate (kon) of 684000 M⁻¹ s⁻¹.
The like results for B2 were, in that order, 0.0834 nM, 8.75e-05 s⁻¹ and 1.05e+06 M⁻¹ s⁻¹.
The like results for B3 were, in that order, 0.61 nM, 0.000288 s⁻¹ and 471000 M⁻¹ s⁻¹.
The like results for B5 were, in that order, 1.22 nM, 0.0028 s⁻¹ and 2.3e+06 M⁻¹ s⁻¹.
Consider B6, for which the Kd was 2.92 nM. This lies in the single-digit nanomolar range.
B7 registered a Kd of 0.0862 nM, a dissociation rate constant (koff) of 0.000141 s⁻¹ and a kon of 1.64e+06 M⁻¹ s⁻¹.
In the case of B8, the Kd amounted to 0.0954 nM, the koff was 0.000356 s⁻¹ and the on-rate constant (kon) came out at 3.74e+06 M⁻¹ s⁻¹.
In turn, B9 showed a Kd of 5.04 nM, a koff of 0.000672 s⁻¹ and a kon of 133000 M⁻¹ s⁻¹.
